Numbering of substitutions follows the chain as printed. In names and notes the source's numbering stands. Like-named read-outs stand apart in the source and are kept apart here.
T1: AβpE11-28 monomer (UniProt P05067 682-699, pyroglutamate at position 11 (N-terminal residue))
T1 construct: range 11-28 (Aβ numbering)
T1 peptide (looked up): EVHHQKLVFFAEDVGSNK

B1: H2L7 (antibody, human IgG1, kappa, V domains shown)
VH: EVQLVQSGAEVKKPGASVRLSCKASGYSFTGFTMNWVRQALGQGLEWMGLINPYNGVTTYNQKFKGRLTMTRDMSTRTVYMDLSSLRYEDTAVYYCTREGNWEGVYWGQGTLVTVSS
VL: EIVLTQSPLSLSVTLGQSASISCRSSQSLLDSNGKTYLHWFILRPGQSPRRLIYLVSILDSGVPDRFSGSGSGTDFTLKISRVEAEDVGVYYCVQGTHFPFTFGSGTKLEIKR
notes: Humanized IgG1/kappa, expressed in CHO cells; also called humanized Pyr12.2 variant H2L7; VH2/VL7
B2: H9L8 (antibody, human IgG1, kappa, V domains shown)
VH: QVQLVQSGPEVKKPGSSVKVSCKASGYSFTGFTMNWVRQTPGKGLEWIGLINPYNGVTTYNQKFKGRVTITADESTRTAYMELLSLTYEDTAVYYCTREGNWEGVYWGQGTPVTVSA
VL: B1 VL with I2V, L11I, V63I, S105G
notes: Humanized IgG1/kappa, expressed in CHO cells; also called humanized Pyr12.2 variant H9L8; VH9/VL8
B3: H2L7-K12V/R71A (antibody, human IgG1, kappa)
heavy: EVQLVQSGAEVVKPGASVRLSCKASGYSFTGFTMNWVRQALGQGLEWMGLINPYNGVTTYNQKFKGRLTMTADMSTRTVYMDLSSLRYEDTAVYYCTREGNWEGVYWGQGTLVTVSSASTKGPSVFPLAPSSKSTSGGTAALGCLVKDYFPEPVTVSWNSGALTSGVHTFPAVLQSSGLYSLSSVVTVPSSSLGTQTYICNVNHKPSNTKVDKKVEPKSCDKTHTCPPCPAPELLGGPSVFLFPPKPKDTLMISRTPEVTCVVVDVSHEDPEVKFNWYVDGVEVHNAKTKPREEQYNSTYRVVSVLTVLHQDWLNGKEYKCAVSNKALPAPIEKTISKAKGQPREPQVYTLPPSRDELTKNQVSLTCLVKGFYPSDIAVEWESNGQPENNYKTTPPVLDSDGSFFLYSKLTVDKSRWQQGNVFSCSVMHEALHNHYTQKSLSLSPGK
light: EIVLTQSPLSLSVTLGQSASISCRSSQSLLDSNGKTYLHWFILRPGQSPRRLIYLVSILDSGVPDRFSGSGSGTDFTLKISRVEAEDVGVYYCVQGTHFPFTFGSGTKLEIKRTVAAPSVFIFPPSDEQLKSGTASVVCLLNNFYPREAKVQWKVDNALQSGNSQESVTEQDSKDSTYSLSSTLTLSKADYEKHKVYACEVTHQGLSSPVTKSFNRGEC
notes: VH variant of H2L7; VL and constant domains identical to H2L7

Experiments:
[1] = biological target: T2, AβpE3-28 monomer (UniProt P05067 674-699, pyroglutamate at position 3 (N-terminal residue)); assay: inhibition ELISA, antigen titrated in solution, AβpE3-40 coat
T2 construct: range 3-28 (Aβ numbering)
Experimental: (§1) The humanized antibodies were incubated at a fixed concentration (0.5 μg/ml) with titrating concentrations of the different Aβ antigens. After incubation for 45 min at 900 rpm to reach equilibrium, the antibody-Aβ samples were added to a blocked and washed ELISA plate with an AβpE3-40 coat (0.5 μM). The samples were incubated on the plate for 25 min without shaking followed by washing, incubation with detection antibody, another washing step and finally incubation with alkaline phosphatase substrate.

[2] = biological target: T3, Aβ3-28 monomer (UniProt P05067 674-699); assay: as above
T3 construct: range 3-28 (Aβ numbering)
Experimental: as §1

[3] = biological target: T4, AβpE3-42 protofibrils (UniProt P05067 674-713, pyroglutamate at position 3 (N-terminal residue)); assay: SPR, protofibrils immobilised, antibody injected, 1:1 fit, apparent; Table 10; apparent KD on AβpE3-42 protofibrils
T4 construct: range 3-42 (Aβ numbering); Soluble aggregates made from AβpE3-42 peptide, purified in the void peak of SEC; also called AβpE3-42 PF
Experimental: (§2) Single cycle kinetics was also used to measure binding of the antibodies to AβpE3-42 protofibrils. […] Regeneration of the surface between cycles was done by injecting 30 μl 10 mM glycine-HCl pH 1.7. The binding data was fitted to a 1:1 interaction model.
(§3) In all SPR experiments, 1×HBS-EP+ (Cytiva, cat. no. BR100669) was used to dilute antibodies and target antigens. Experiments were performed at 25° C.

[4] = biological target: T4, AβpE3-42 protofibrils; assay: SPR, protofibrils immobilised, antibody injected, 1:1 fit, apparent
Experimental: as §2, §3

[5] = biological target: T4, AβpE3-42 protofibrils; assay: inhibition ELISA, antigen titrated in solution, AβpE3-40 coat
Experimental: as §1, with “concentration (0.1” for “concentration (0.5”

[6] = biological target: T5, AβpE3-40 monomer (UniProt P05067 674-711, pyroglutamate at position 3 (N-terminal residue)); assay: as above
T5 construct: range 3-40 (Aβ numbering); Synthetic peptide (Bachem/Anaspec), verified monomeric by SEC; also called monomeric AβpE3-40
Experimental: as §1, with “concentration (0.1” for “concentration (0.5”

[7] = biological target: T6, Aβ1-42 protofibrils (UniProt P05067 672-713); assay: as above
T6 construct: range 1-42 (Aβ numbering); Soluble aggregates made from Aβ1-42 monomer
Experimental: as §1, with “concentration (0.1” for “concentration (0.5”

[8] = biological target: T7, Aβ1-40 monomer (UniProt P05067 672-711); assay: as above
T7 construct: range 1-40 (Aβ numbering)
Experimental: as §1, with “concentration (0.1” for “concentration (0.5”

[9] = biological target: T8, Aβ1-28 monomer (UniProt P05067 672-699); assay: as above
T8 construct: range 1-28 (Aβ numbering)
Experimental: as §1

[10] = biological target: T9, Aβ5-28 monomer (UniProt P05067 676-699); assay: as above
T9 construct: range 5-28 (Aβ numbering)
Experimental: as §1

[11] = biological target: T2, AβpE3-28 monomer; assay: as above; remark: listed apart in the source
Experimental: as §1

[12] = biological target: T10, Aβ2-28 monomer (UniProt P05067 673-699); assay: as above
T10 construct: range 2-28 (Aβ numbering)
Experimental: as §1

[13] = biological target: T1, AβpE11-28 monomer; assay: as above
Experimental: as §1

[14] = biological target: T11, Aβ4-28 monomer (UniProt P05067 675-699); assay: as above
T11 construct: range 4-28 (Aβ numbering)
Experimental: as §1

[15] = biological target: T3, Aβ3-28 monomer; assay: as above; remark: listed apart in the source
Experimental: as §1

[16] = biological target: T4, AβpE3-42 protofibrils; assay: SPR, protofibrils immobilised, antibody injected, 1:1 fit, apparent; remark: listed apart in the source
Experimental: as §2, §3
(§4) Affinity evaluation and KD determination by surface plasmon resonance: Binding interactions between antigens and antibodies were evaluated by SPR using a Biacore 8K instrument (Cytiva) according to standard procedures.

[17] = biological target: T5, AβpE3-40 monomer; assay: SPR, antibody immobilised, monomer injected, 1:1 fit
Experimental: (§5) Single cycle kinetics with the antibodies immobilized on a CM5 chip was used to measure the binding of the antibodies to the AβpE3-40 monomer. For the measurements, 5 μg/ml of analyte antibody was immobilized on the chip. […] Regeneration of the surface between cycles was done by injecting 30 μl 3 M MgCl₂. The binding data was fitted to a 1:1 interaction model.
as §3

[18] = biological target: T4, AβpE3-42 protofibrils; assay: inhibition ELISA, antigen titrated in solution, AβpE3-40 coat; remark: listed apart in the source
[19] = biological target: T5, AβpE3-40 monomer; assay: as above; remark: listed apart in the source
[20] = biological target: T6, Aβ1-42 protofibrils; assay: as above; remark: listed apart in the source
[21] = biological target: T7, Aβ1-40 monomer; assay: as above; remark: listed apart in the source
[22] = biological target: T5, AβpE3-40 monomer; assay: SPR, antibody immobilised, monomer injected, 1:1 fit; remark: listed apart in the source
Experimental: as §5, §3, §4

[23] = biological target: T4, AβpE3-42 protofibrils; assay: SPR, protofibrils immobilised, antibody injected, 1:1 fit, apparent; apparent KD on AβpE3-42 protofibrils
Experimental: as §2, §3

[24] = biological target: T8, Aβ1-28 monomer; assay: inhibition ELISA, antigen titrated in solution, AβpE3-40 coat; remark: listed apart in the source
Experimental: as §1

[25] = biological target: T4, AβpE3-42 protofibrils; assay: SPR, protofibrils immobilised, antibody injected, 1:1 fit, apparent; binding to AβpE3-42 protofibrils; KD in pM
Experimental: as §2, §3, §4

T8 sequence (P05067 672-699): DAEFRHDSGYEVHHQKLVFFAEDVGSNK
T5 sequence (P05067 674-711): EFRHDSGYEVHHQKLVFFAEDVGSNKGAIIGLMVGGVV
T6 sequence (P05067 672-713): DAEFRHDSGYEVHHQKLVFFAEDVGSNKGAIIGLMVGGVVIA
T7 sequence (P05067 672-711): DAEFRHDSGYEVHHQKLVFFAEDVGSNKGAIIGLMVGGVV
T4 sequence (P05067 674-713): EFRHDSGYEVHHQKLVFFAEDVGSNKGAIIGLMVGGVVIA
T3 sequence (P05067 674-699): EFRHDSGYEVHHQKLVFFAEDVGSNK
T10 sequence (P05067 673-699): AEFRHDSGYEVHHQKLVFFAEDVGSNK
T11 sequence (P05067 675-699): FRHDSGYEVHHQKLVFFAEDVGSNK
T9 sequence (P05067 676-699): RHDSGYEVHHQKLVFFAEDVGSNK

Binder	IC50 [1] [nM]	IC50 [2] [nM]	koff [4] [s⁻¹]	kon [4] [M⁻¹ s⁻¹]	IC50 [5] [nM]	IC50 [6] [nM]	IC50 [7] [nM]	IC50 [8] [nM]	IC50 [9] [nM]	IC50 [10] [nM]	IC50 [11] [nM]	IC50 [12] [nM]	IC50 [13] [nM]	IC50 [14] [nM]	IC50 [15] [nM]	koff [16] [s⁻¹]	kon [16] [M⁻¹ s⁻¹]	Kd [17] [nM]	koff [17] [s⁻¹]	kon [17] [M⁻¹ s⁻¹]	other results
B1	3.6	2350	1.79e-05	107000	2.5	2.6	> 500	> 12500	> 12500	> 12500	5.5	> 12500	> 12500	> 12500	1870	1.79e-05	107000	2.54	0.000125	50500	Kd [3]: 0.173 nM; IC50 [18]: 3 nM; IC50 [19]: 2.35 nM; IC50 [20]: > 132 nM; IC50 [21]: > 500 nM; Kd [22]: 2.54 nM; koff [22]: 0.000125 s⁻¹; kon [22]: 50500 M⁻¹ s⁻¹
B2	–	–	2.05e-05	44300	4.9	2.1	> 500	> 12500	> 12500	> 12500	3.5	> 12500	> 12500	> 12500	1790	–	–	2.7	0.000139	53700	Kd [23]: 0.464 nM
B3	3	2820	–	–	–	–	–	–	–	–	–	–	–	–	–	2.92e-05	61200	–	–	–	IC50 [24]: 10200 nM; Kd [25]: 0.477 nM; IC50 [18]: 3.58 nM; IC50 [19]: 1.69 nM; IC50 [20]: > 132 nM; IC50 [21]: > 500 nM; Kd [22]: 4.14 nM; koff [22]: 0.000233 s⁻¹; kon [22]: 59000 M⁻¹ s⁻¹

Reference: patent publication US20250388664A1 (BIOARCTIC, published 2025)
